Among the data in patent US20170044239A1 are IC50, neutralization of BS/07 H1N1 infection, normalized neutralizing potency against BS/07 H1N1 and normalized binding affinity values, retold here.

Assay [1] has as its target hemagglutinin on BS/07 H1N1 virus (A/Brisbane/59/2007) (Influenza A virus A/Brisbane/59/2007 (H1N1)). Kind of assay: cell-based or functional assay.
For assay [2], the target named is BS/07 H1 HA (recombinant ectodomain of hemagglutinin from A/Brisbane/59/2007, H1N1) (Influenza A virus A/Brisbane/59/2007 (H1N1)).

In turn, F10 IgG (antibody) displayed an IC50, neutralization of BS/07 H1N1 infection in assay [1] of 1.85 µg/mL.

For F10 scFv (phage-free soluble, E-tag), in assay [1], the normalized neutralizing potency against BS/07 H1N1 came out at 1. Also, in assay [2], the normalized binding affinity came out at 1.
